Laboratory results: patent publication US11162087B2, “Beta-glucosidase, enzyme composition including same, and method for manufacturing sugar solution using same” (RIKEN, priority 2017, dated 2021)

How the values were obtained:
[1] = β-glucosidase activity measurement with pNP-Glc; format: biochemical; conditions: cell-free extract, volume reduced to one-twelfth by ultrafilter membrane; detection limit 0.075
Method: In the present invention, “β-glucosidase” means an enzyme that catalyzes a reaction for hydrolysis degradation of a sugar β-glucoside bond. In the present invention, a method for measuring a β-glucosidase activity utilizes a reaction using p-nitrophenyl-β-D-glucopyranoside (pNP-Glc) as a substrate. Specifically, an enzyme liquid is added to a substrate solution prepared by dissolving pNP-Glc in 50 mM acetic acid-sodium acetate buffer solution (pH 5.0) and reacted at 30° C. for 10 minutes; and the reaction is stopped by well mixing with 2M sodium carbonate in an amount equivalent to one-tenth of a reaction system volume to measure an increase of the absorbance at 405 nm. When p-nitrophenol is released and the absorbance at 405 nm is increased after the above reaction, it is determined that the β-glucosidase activity is present.
10 μL of an enzyme diluted solution was added to and reacted with 90 μL of 50 mM acetic acid buffer containing 1 mM p-nitrophenyl-β-glucopyranoside (manufactured by Sigma-Aldrich Japan) at 30° C. for 10 minutes. Thereafter, 10 μL of 2M sodium carbonate was added and well mixed to stop the reaction, and an increase of absorbance at 405 nm was measured. The activity to release 1 μmol of p-nitrophenol per minute was defined as 1 U. For a blank, 10 μL of 2M sodium carbonate was added to and well mixed with 90 μL of 50 mM sodium acetate buffer containing 1 mM p-nitrophenyl-β-glucopyranoside, and thereafter, 10 μL of an enzyme diluted solution was added to cause a reaction at 30° C. for 30 minutes. Thereafter, an increase of absorbance at 405 nm was measured. At this time, the enzyme liquid was diluted so as not to exceed an absorbance at 405 nm of 1. In addition, a calibration curve was created based on absorbances measured by preparing p-nitrophenol solutions at concentrations of 0.1 mM, 0.2 mM, 1 mM and 2 mM; using 10 μL of them instead of an enzyme diluted solution; and adding and well mixing 10 μL of 2M sodium carbonate for color development.

[2] = Inhibitory action of glucose on the β-glucosidase activity; format: biochemical; conditions: 1 mM pNP-Glc, 30° C., 100 minutes
Text: The β-glucosidase derived from a protist of the genus Pseudotrichonympha of the present invention is preferably less likely to suffer from inhibition by glucose on the 3-glucosidase activity. Specifically, when the β-glucosidase activity in the absence of glucose is taken unity, the β-glucosidase activity under a condition of a glucose concentration of 8 g/L (or in the presence of 8 g/L glucose) is preferably 0.5 or more, more preferably 0.6 or more, more preferably 0.7 or more, more preferably 0.8 or more, more preferably 0.9 or more, more preferably 1.0 or more, more preferably 1.1 or more, more preferably 1.2 or more, more preferably 1.3 or more, and in particular preferably 1.4 or more. Further, in addition to the β-glucosidase activity under the condition of the glucose concentration of 8 g/L, when the β-glucosidase activity in the absence of glucose is taken as unity, the β-glucosidase activity under a condition of a glucose concentration of 20 g/L (or in the presence of 20 g/L glucose) is preferably 0.5 or more, more preferably 0.6 or more, and in particular preferably 0.7 or more. The method used herein for measuring the β-glucosidase activity is the same as the above-described method except that 8 g/L or 20 g/L of glucose is added at the time of measuring; and results obtained thereby are used.
An enzyme solution was added to a mixture solution containing 1 mM p-nitrophenyl-β-glucopyranoside (manufactured by Sigma-Aldrich Japan), 50 mM acetic acid buffer and 0, 4, 8 or 20 g/L glucose such that the total amount of the reaction solution became 100 μL, causing a reaction at 30° C. for 100 minutes. Thereafter, 10 μL of 2M sodium carbonate was added and well mixed to stop the reaction, and an increase of absorbance at 405 nm was measured. The activity to release 1 μmol of p-nitrophenol per minute was defined as 1 U. For a blank, 10 μL of 2M sodium carbonate was added to an amount, equivalent to that of the above mixture solution for the reaction solution before addition of the enzyme solution, of a mixture solution containing 1 mM p-nitrophenyl-β-glucopyranoside, 50 mM sodium acetate buffer and 0, 4, 8 or 20 g/L glucose, and mixed well; and then, the enzyme solution was added such that the total solution amount of the blank became 110 μL, causing a reaction at 30° C. for 30 minutes. Thereafter, an increase of absorbance at 405 nm was measured.
In accordance with Reference Example 8, the inhibitory action of glucose on the β-glucosidase activity was measured in enzyme compositions: containing the β-glucosidase and the genus Trichoderma filamentous fungus-derived cellulase prepared in Example 10; and the cell-free extract of β-glucosidase mutant gene transformed E. coli prepared in Example 5. For a comparative control, only the genus Trichoderma filamentous fungus-derived cellulase was used, and the inhibitory action of glucose on the β-glucosidase activity was measured in the same manner. […] That is, both of the enzyme composition containing the β-glucosidase of the present invention and the genus Trichoderma filamentous fungus-derived cellulase, and the cell-free extract of β-glucosidase mutant gene transformed E. coli were less likely to suffer from inhibition on the β-glucosidase activity by glucose, compared to only the genus Trichoderma filamentous fungus-derived cellulase, and the enzyme composition of Comparative Example 1 containing the genus Aspergillus filamentous fungus-derived β-glucosidase and the genus Trichoderma filamentous fungus-derived cellulase.

B1: Mutant 2: His-tagged polypeptide of SEQ ID NO: 8, 80% identity with SEQ ID NO: 1; tested as cell-free extract of transformed E. coli (protein)
chain: QIEGLINVMTLEEKVGQMAQLAIDLFIDVPTDTVIPEAARKGIIDYKIGSILNTYGGVSHSKEVWTYINAEFYKYTEETDLKIPILYGLDSIHGANFVNNFTSFPQQIGMAATFNPSLLKEGSRISAYETRAASVGWVFSPVMDLGLDPRWPRIWEGFGEDPYLSSQFGIASVHGFQGKDPNLIDEFHVAACAKHYLAYSNPFTGKDRTPAILSDIFIREYHLPSFKAAVDAGVASVMVNSGLINGIPTHMNHYLLTTVLKEELGFQGVIVTDWQDIENIHTRDHLAPTQKDAVKLAINAGIDMSMIPYNYDFIDYLIELVHEGEVSIDRINDAVRRILKMKAKMNLWDLPVTKSEDYPEFGSEAHANASYTAASESITLLKNENSTLPLAKNTKVLVVGPNSNSHRSLNGGWSYSWQGNAGVQYAVQYNTIYQAIQKVNGEENTVFSQGVRYIETGNYYEDEEVNISESVALARDVDYIILALGENTYTEKPGDLSDLEISQNQIDLAKALASTGKPIILVLNQGRPRIISRIEQLVSAILWIYWPGNYGGDALADILFGDVNPSGKLPVTYPRYSASL
modifications: His tag; amino acid sequence having 80% sequence identity with amino acid sequence of SEQ ID NO 1
notes: tested as cell-free extract of transformed E. coli
Increase of absorbance (405 nm) [1]: 0.365 | BGL activity (relative value) in the presence of 8 g/L glucose when BGL activity in the absence of glucose is taken as unity ([2]; 8 g/L glucose): 0.74 | BGL activity (relative value) in the presence of 20 g/L glucose when BGL activity in the absence of glucose is taken as unity ([2]; 20 g/L glucose): 0.72
